Laboratory results published in patent US20220204580A1 (AstraZeneca / MedImmune, published 2022).
Numbered stars: 1 amine (or outer) side, 2 acyl side, 3 side chain; on linkers, the order of the positions; unused ones are H or OH. Bridge positions count the residues as written; N and C are the ends. Square brackets hold non-standard residues; d marks the D form. Side chains are listed from the residue outwards. Ends that are not written are not given here. * marks the point of attachment. C18 diacid = O=C(O)CCCCCCCCCCCCCCCCC(=O)*; γGlu = O=C(O)[C@H](CCC(=O)[*:2])N[*:1]; Aib = CC(C)(N)C(=O)O

B1: Peptide 100 (SEQ ID NO: 100) (peptide)
peptide: K([γGlu-C18 diacid])KCNTATCATQRLANFL[Aib]HSSNNFGPILPPTNV[Aib]SNTY-NH2
modifications: disulfide 3-8; N-terminus assumed
SMILES: CC[C@H](C)[C@H](NC(=O)[C@@H]1CCCN1C(=O)CNC(=O)[C@H](Cc1ccccc1)NC(=O)[C@H](CC(N)=O)NC(=O)[C@H](CC(N)=O)NC(=O)[C@H](CO)NC(=O)[C@H](CO)NC(=O)[C@H](Cc1c[nH]cn1)NC(=O)C(C)(C)NC(=O)[C@H](CC(C)C)NC(=O)[C@H](Cc1ccccc1)NC(=O)[C@H](CC(N)=O)NC(=O)[C@H](C)NC(=O)[C@H](CC(C)C)NC(=O)[C@H](CCCNC(=N)N)NC(=O)[C@H](CCC(N)=O)NC(=O)[C@@H](NC(=O)[C@H](C)NC(=O)[C@@H]1CSSC[C@H](NC(=O)[C@H](CCCCN)NC(=O)[C@@H](N)CCCCNC(=O)CC[C@H](NC(=O)CCCCCCCCCCCCCCCCC(=O)O)C(=O)O)C(=O)N[C@@H](CC(N)=O)C(=O)N[C@@H]([C@@H](C)O)C(=O)N[C@@H](C)C(=O)N[C@@H]([C@@H](C)O)C(=O)N1)[C@@H](C)O)C(=O)N[C@@H](CC(C)C)C(=O)N1CCC[C@H]1C(=O)N1CCC[C@H]1C(=O)N[C@H](C(=O)N[C@@H](CC(N)=O)C(=O)N[C@H](C(=O)NC(C)(C)C(=O)N[C@@H](CO)C(=O)N[C@@H](CC(N)=O)C(=O)N[C@H](C(=O)N[C@@H](Cc1ccc(O)cc1)C(N)=O)[C@@H](C)O)C(C)C)[C@@H](C)O
B2: Peptide 107 (SEQ ID NO: 107) (peptide)
peptide: K([γGlu-C18 diacid])KCNTATCATQRLANFLRHSSNNFGP[Aib]LPPTNVGSNTY-NH2
modifications: disulfide 3-8; N-terminus assumed
SMILES: CC(C)C[C@H](NC(=O)[C@H](CCCNC(=N)N)NC(=O)[C@H](CCC(N)=O)NC(=O)[C@@H](NC(=O)[C@H](C)NC(=O)[C@@H]1CSSC[C@H](NC(=O)[C@H](CCCCN)NC(=O)[C@@H](N)CCCCNC(=O)CC[C@H](NC(=O)CCCCCCCCCCCCCCCCC(=O)O)C(=O)O)C(=O)N[C@@H](CC(N)=O)C(=O)N[C@@H]([C@@H](C)O)C(=O)N[C@@H](C)C(=O)N[C@@H]([C@@H](C)O)C(=O)N1)[C@@H](C)O)C(=O)N[C@@H](C)C(=O)N[C@@H](CC(N)=O)C(=O)N[C@@H](Cc1ccccc1)C(=O)N[C@@H](CC(C)C)C(=O)N[C@@H](CCCNC(=N)N)C(=O)N[C@@H](Cc1c[nH]cn1)C(=O)N[C@@H](CO)C(=O)N[C@@H](CO)C(=O)N[C@@H](CC(N)=O)C(=O)N[C@@H](CC(N)=O)C(=O)N[C@@H](Cc1ccccc1)C(=O)NCC(=O)N1CCC[C@H]1C(=O)NC(C)(C)C(=O)N[C@@H](CC(C)C)C(=O)N1CCC[C@H]1C(=O)N1CCC[C@H]1C(=O)N[C@H](C(=O)N[C@@H](CC(N)=O)C(=O)N[C@H](C(=O)NCC(=O)N[C@@H](CO)C(=O)N[C@@H](CC(N)=O)C(=O)N[C@H](C(=O)N[C@@H](Cc1ccc(O)cc1)C(N)=O)[C@@H](C)O)C(C)C)[C@@H](C)O
B3: Peptide 102 (SEQ ID NO: 102) (peptide)
peptide: K([γGlu-C18 diacid])KCNTATCATQRLANFL[Aib]HSSNNFGPILPPTNVGS[Aib]TY-NH2
modifications: disulfide 3-8; N-terminus assumed
SMILES: CC[C@H](C)[C@H](NC(=O)[C@@H]1CCCN1C(=O)CNC(=O)[C@H](Cc1ccccc1)NC(=O)[C@H](CC(N)=O)NC(=O)[C@H](CC(N)=O)NC(=O)[C@H](CO)NC(=O)[C@H](CO)NC(=O)[C@H](Cc1c[nH]cn1)NC(=O)C(C)(C)NC(=O)[C@H](CC(C)C)NC(=O)[C@H](Cc1ccccc1)NC(=O)[C@H](CC(N)=O)NC(=O)[C@H](C)NC(=O)[C@H](CC(C)C)NC(=O)[C@H](CCCNC(=N)N)NC(=O)[C@H](CCC(N)=O)NC(=O)[C@@H](NC(=O)[C@H](C)NC(=O)[C@@H]1CSSC[C@H](NC(=O)[C@H](CCCCN)NC(=O)[C@@H](N)CCCCNC(=O)CC[C@H](NC(=O)CCCCCCCCCCCCCCCCC(=O)O)C(=O)O)C(=O)N[C@@H](CC(N)=O)C(=O)N[C@@H]([C@@H](C)O)C(=O)N[C@@H](C)C(=O)N[C@@H]([C@@H](C)O)C(=O)N1)[C@@H](C)O)C(=O)N[C@@H](CC(C)C)C(=O)N1CCC[C@H]1C(=O)N1CCC[C@H]1C(=O)N[C@H](C(=O)N[C@@H](CC(N)=O)C(=O)N[C@H](C(=O)NCC(=O)N[C@@H](CO)C(=O)NC(C)(C)C(=O)N[C@H](C(=O)N[C@@H](Cc1ccc(O)cc1)C(N)=O)[C@@H](C)O)C(C)C)[C@@H](C)O
B4: Peptide 101 (SEQ ID NO: 101) (peptide)
peptide: K([γGlu-C18 diacid])KCNTATCATQRLANFL[Aib]HSSNNFGPILPPTNVG[Aib]NTY-NH2
modifications: disulfide 3-8; N-terminus assumed
SMILES: CC[C@H](C)[C@H](NC(=O)[C@@H]1CCCN1C(=O)CNC(=O)[C@H](Cc1ccccc1)NC(=O)[C@H](CC(N)=O)NC(=O)[C@H](CC(N)=O)NC(=O)[C@H](CO)NC(=O)[C@H](CO)NC(=O)[C@H](Cc1c[nH]cn1)NC(=O)C(C)(C)NC(=O)[C@H](CC(C)C)NC(=O)[C@H](Cc1ccccc1)NC(=O)[C@H](CC(N)=O)NC(=O)[C@H](C)NC(=O)[C@H](CC(C)C)NC(=O)[C@H](CCCNC(=N)N)NC(=O)[C@H](CCC(N)=O)NC(=O)[C@@H](NC(=O)[C@H](C)NC(=O)[C@@H]1CSSC[C@H](NC(=O)[C@H](CCCCN)NC(=O)[C@@H](N)CCCCNC(=O)CC[C@H](NC(=O)CCCCCCCCCCCCCCCCC(=O)O)C(=O)O)C(=O)N[C@@H](CC(N)=O)C(=O)N[C@@H]([C@@H](C)O)C(=O)N[C@@H](C)C(=O)N[C@@H]([C@@H](C)O)C(=O)N1)[C@@H](C)O)C(=O)N[C@@H](CC(C)C)C(=O)N1CCC[C@H]1C(=O)N1CCC[C@H]1C(=O)N[C@H](C(=O)N[C@@H](CC(N)=O)C(=O)N[C@H](C(=O)NCC(=O)NC(C)(C)C(=O)N[C@@H](CC(N)=O)C(=O)N[C@H](C(=O)N[C@@H](Cc1ccc(O)cc1)C(N)=O)[C@@H](C)O)C(C)C)[C@@H](C)O
B5: Peptide 106 (SEQ ID NO: 106) (peptide)
peptide: K([γGlu-C18 diacid])KCNTATCATQRLANFLVHSSNNFGP[Aib]LPPTNVGSNTY-NH2
modifications: disulfide 3-8; N-terminus assumed
SMILES: CC(C)C[C@H](NC(=O)[C@H](CCCNC(=N)N)NC(=O)[C@H](CCC(N)=O)NC(=O)[C@@H](NC(=O)[C@H](C)NC(=O)[C@@H]1CSSC[C@H](NC(=O)[C@H](CCCCN)NC(=O)[C@@H](N)CCCCNC(=O)CC[C@H](NC(=O)CCCCCCCCCCCCCCCCC(=O)O)C(=O)O)C(=O)N[C@@H](CC(N)=O)C(=O)N[C@@H]([C@@H](C)O)C(=O)N[C@@H](C)C(=O)N[C@@H]([C@@H](C)O)C(=O)N1)[C@@H](C)O)C(=O)N[C@@H](C)C(=O)N[C@@H](CC(N)=O)C(=O)N[C@@H](Cc1ccccc1)C(=O)N[C@@H](CC(C)C)C(=O)N[C@H](C(=O)N[C@@H](Cc1c[nH]cn1)C(=O)N[C@@H](CO)C(=O)N[C@@H](CO)C(=O)N[C@@H](CC(N)=O)C(=O)N[C@@H](CC(N)=O)C(=O)N[C@@H](Cc1ccccc1)C(=O)NCC(=O)N1CCC[C@H]1C(=O)NC(C)(C)C(=O)N[C@@H](CC(C)C)C(=O)N1CCC[C@H]1C(=O)N1CCC[C@H]1C(=O)N[C@H](C(=O)N[C@@H](CC(N)=O)C(=O)N[C@H](C(=O)NCC(=O)N[C@@H](CO)C(=O)N[C@@H](CC(N)=O)C(=O)N[C@H](C(=O)N[C@@H](Cc1ccc(O)cc1)C(N)=O)[C@@H](C)O)C(C)C)[C@@H](C)O)C(C)C

Legend:
[1] = molecular target: T1, human amylin receptor (calcitonin receptor co-expressed with receptor activity modifying protein, RAMP3) (human, UniProt P30988 25-474; O60896 24-148); test: cell-based or functional assay
T1 sequence (looked up) 1: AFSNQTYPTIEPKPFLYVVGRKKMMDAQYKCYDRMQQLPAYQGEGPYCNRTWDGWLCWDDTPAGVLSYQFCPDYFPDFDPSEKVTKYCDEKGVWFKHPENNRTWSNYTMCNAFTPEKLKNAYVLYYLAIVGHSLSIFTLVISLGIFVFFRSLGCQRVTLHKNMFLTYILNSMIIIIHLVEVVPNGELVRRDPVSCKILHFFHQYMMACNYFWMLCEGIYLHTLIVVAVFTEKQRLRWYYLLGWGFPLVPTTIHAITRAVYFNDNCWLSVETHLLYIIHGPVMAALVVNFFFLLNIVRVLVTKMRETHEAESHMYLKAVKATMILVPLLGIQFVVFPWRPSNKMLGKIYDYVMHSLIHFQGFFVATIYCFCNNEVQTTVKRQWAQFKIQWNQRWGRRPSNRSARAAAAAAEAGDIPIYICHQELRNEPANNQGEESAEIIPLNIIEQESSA
T1 sequence (looked up) 2: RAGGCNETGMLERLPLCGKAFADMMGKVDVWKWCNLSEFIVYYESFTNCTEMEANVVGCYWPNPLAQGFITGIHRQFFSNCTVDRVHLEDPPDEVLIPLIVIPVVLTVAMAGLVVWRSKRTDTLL

[2] = molecular target: T2, human calcitonin receptor (human, UniProt P30988 25-474); test: cell-based or functional assay
T2 sequence (looked up): T1 sequence (looked up) 1

Binder	EC50 (cAMP production) [1] [pM]	Ratio (EC50 hCTR / EC50 hAMYR3) [1]	EC50 (cAMP production) [2] [pM]
B1	364	1	459
B2	1070	25	26300
K([γGlu-C18 diacid])CNTATCATQRLANFLVHSSNNFGPI[dL]PPTNVGSNTY-NH2 (disulfide 2-7) [Peptide 103 (SEQ ID NO: 103)]	161	12	1880
B3	479	3	1630
B4	177	2	441
B5	473	7	3420
K([γGlu-C18 diacid])CNTATCATQRLANFLVHSSNNFGPIL[dP]PTNVGSNTY-NH2 (disulfide 2-7) [Peptide 104 (SEQ ID NO: 104)]	79	23	1820
